Reference: the supplement of paper PMC9233669
Fewer inactive variants are shown than the library holds.

Columns and labels:
biotinyl-Met-oxazolone = assay: self-aminoacylation, catalytic enhancement (BMO) (fold over background); higher = more active; k-Seq, kA / k0A0; sequences stand for … in GGGAAUGGAUCCACAUCUACGAAUUC…UUCACUGCAGACUUGACGAAGCUG
Method in brief: (§1)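 Mutagenized RNA pools (0.43 μM; 21-nt variable region) were treated with 2–1250 μM of each biotinyl-aminoacyl-oxazolone. Conditions were 50 μL HEPES/NaCl/KCl/MgCl2/CaCl2 buffer, 5% acetonitrile, pH 6.9–7.0, room temperature, 90 minutes. Catalytic enhancement, the median kA relative to the uncatalyzed rate, was derived from streptavidin capture, qPCR and Illumina sequencing.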

biotinyl-Phe-oxazolone = assay: self-aminoacylation, catalytic enhancement (BFO) (fold over background); higher = more active; k-Seq, kA / k0A0; sequences stand for … in GGGAAUGGAUCCACAUCUACGAAUUC…UUCACUGCAGACUUGACGAAGCUG
Method in brief: as §1

biotinyl-Val-oxazolone = assay: self-aminoacylation, catalytic enhancement (BVO) (fold over background); higher = more active; k-Seq, kA / k0A0; sequences stand for … in GGGAAUGGAUCCACAUCUACGAAUUC…UUCACUGCAGACUUGACGAAGCUG
Method in brief: as §1

biotinyl-Ile-oxazolone = assay: self-aminoacylation, catalytic enhancement (BIO) (fold over background); higher = more active; k-Seq, kA / k0A0; sequences stand for … in GGGAAUGGAUCCACAUCUACGAAUUC…UUCACUGCAGACUUGACGAAGCUG
Method in brief: as §1

biotinyl-Trp-oxazolone = assay: self-aminoacylation, catalytic enhancement (BWO) (fold over background); higher = more active; k-Seq, kA / k0A0; sequences stand for … in GGGAAUGGAUCCACAUCUACGAAUUC…UUCACUGCAGACUUGACGAAGCUG
Method in brief: as §1

biotinyl-Leu-oxazolone = assay: self-aminoacylation, catalytic enhancement (BLO) (fold over background); higher = more active; k-Seq, kA / k0A0; sequences stand for … in GGGAAUGGAUCCACAUCUACGAAUUC…UUCACUGCAGACUUGACGAAGCUG
Method in brief: as §1

| Sequence | self-aminoacylation (biotinyl-Met-oxazolone) | self-aminoacylation (biotinyl-Phe-oxazolone) | self-aminoacylation (biotinyl-Val-oxazolone) | self-aminoacylation (biotinyl-Ile-oxazolone) | self-aminoacylation (biotinyl-Trp-oxazolone) | self-aminoacylation (biotinyl-Leu-oxazolone) |
| --- | --- | --- | --- | --- | --- | --- |
| AUAACCCUGGUCAGCGAGUGA [Fam2.1 aminoacylation ribozyme variant] | 4.66 | 25.1 | 2.92 | 3.52 | 6.19 | 5.25 |
| AUAACCCUGGUCAUCGAGUGC [Fam2.1 aminoacylation ribozyme variant] | 1.96 | 4.44 | 1.42 | 1.33 | 1.89 | 2.44 |
| AUAACCCUGGUCAUUGAGUGA [Fam2.1 aminoacylation ribozyme variant] | 8.67 | 36.7 | 3.82 | 3.89 | 10.2 | 8.57 |
| AUAACCCUGGUCCUCGAGUGA [Fam2.1 aminoacylation ribozyme variant] | 2.77 | 13.1 | 1.79 | 1.91 | 3.38 | 3.52 |
| AUAACCCUGGUUAUCGAGUGA [Fam2.1 aminoacylation ribozyme variant] | 8.37 | 38.8 | 3.44 | 3.74 | 8.28 | 8.11 |
| AUAACCUUGGUCAUCGAGUGA [Fam2.1 aminoacylation ribozyme variant] | 5.95 | 27.1 | 3.3 | 2.94 | 7.25 | 6.06 |
| AUAACUCUGGUCAUCGAGUGA [Fam2.1 aminoacylation ribozyme variant] | 5.54 | 19.5 | 3.04 | 3.06 | 6.33 | 5.36 |
| AUACACCCAGGUCAUCGGGUG [Fam2.2 aminoacylation ribozyme variant] | 5.29 | 32.7 | 3.3 | 3.78 | 5.99 | 4.64 |
| AUACACCUAAGUCAUCGGGUG [Fam2.2 aminoacylation ribozyme variant] | 4.44 | 28.8 | 2.91 | 3.47 | 4.14 | 5.83 |
| AUACACCUAGAUCAUCGGGUG [Fam2.2 aminoacylation ribozyme variant] | 3 | 7.92 | 1.69 | 1.85 | 3.43 | 2.73 |
| AUACACCUAGGACAUCGGGUG [Fam2.2 aminoacylation ribozyme variant] | 2.98 | 14.1 | 2.79 | 2.73 | 5.32 | 2.82 |
| AUACACCUAGGUCAUCGGAUG [Fam2.2 aminoacylation ribozyme variant] | 0.978 | 0.387 | 0.946 | 1.03 | 0.96 | 0.994 |
| AUACACCUAGGUCAUCUGGUG [Fam2.2 aminoacylation ribozyme variant] | 1.56 | 4.68 | 1.23 | 1.4 | 1.41 | 1.68 |
| AUACACCUAUGUCAUCGGGUG [Fam2.2 aminoacylation ribozyme variant] | 3.42 | 17.3 | 2.52 | 2.46 | 3.58 | 3.86 |
| AUACACCUCGGUCAUCGGGUG [Fam2.2 aminoacylation ribozyme variant] | 3.08 | 23.3 | 3.18 | 2.82 | 3.09 | 3.14 |
| AUACGCCUAGGUCAUCGGGUG [Fam2.2 aminoacylation ribozyme variant] | 7.57 | 36 | 4.07 | 4.85 | 7.38 | 7.77 |
| AUACUUCAAACAAUCAGUCUG [Fam1A.1 aminoacylation ribozyme variant] | 0.823 | 9.06 | 1.02 | 0.975 | 4.24 | 0.979 |
| AUACUUCAAACAAUCGGUAUG [Fam1A.1 aminoacylation ribozyme variant] | 0.732 | 3.52 | 0.744 | 0.925 | 2.3 | 0.732 |
| AUACUUCAAAUAAUCGGUCUG [Fam1A.1 aminoacylation ribozyme variant] | 0.965 | 5.26 | 0.877 | 0.992 | 4.17 | 0.998 |
| AUACUUCAAUCAAUCGGUCUG [Fam1A.1 aminoacylation ribozyme variant] | 1.19 | 8.53 | 1.06 | 1.11 | 6.62 | 1.33 |
| AUACUUCCAACAAUCGGUCUG [Fam1A.1 aminoacylation ribozyme variant] | 0.705 | 0.856 | 0.727 | 0.782 | 0.721 | 0.743 |
| AUAGACCUAGGUCAUCGGGUG [Fam2.2 aminoacylation ribozyme variant] | 2.93 | 19.5 | 2.65 | 2.59 | 4.2 | 3.85 |
| AUAUACCUAGGUCAUCGGGUG [Fam2.2 aminoacylation ribozyme variant] | 3.97 | 25.9 | 2.74 | 2.65 | 4.16 | 5.38 |
| AUCAACCUGGUCAUCGAGUGA [Fam2.1 aminoacylation ribozyme variant] | 10 | 43.5 | 4.81 | 5.12 | 9.87 | 11.9 |
| AUCACCCUGAUCAUCGAGUGA [Fam2.1 aminoacylation ribozyme variant] | 10.8 | 62.3 | 4.32 | 4.86 | 10.9 | 10.2 |
| AUCACCCUGGUCAACGAGUGA [Fam2.1 aminoacylation ribozyme variant] | 9.31 | 64.3 | 4.69 | 4.43 | 10.6 | 10.6 |
